# B1: SEQ ID NO. 2: recombinant lectin; variant of the S. rolfsii lectin amino acid sequence (reported as Rec-2 in WO 2010/095143) (protein)
# chain: TYKITVRVYQTNPDAFFHPVEKTVWKYANGGTWTITDDQHVLTMGGSGTSGTLRFHADNGESFTATFGVHNYKRWCDIVTNLAADETGMVINQQYYSQKNREEARERQLSNYQVKNAKGRNFQIVYTEAEGNDLHANLIIG
# modifications: In vitro synthesis
# Legend:
# Notch-1 = assay: biomarker levels in IOMM-Lee by ELISA; assay type: cell-based, Human; conditions: 1 μg/mL-80 μg/mL, 48 h
# Excerpt: Effect of SEQ ID No 2 on the expression of following 7 biomarkers were estimated in Human Meningioma cell line (IOMM-Lee) using multiplex analysis: TNF-alpha, VEGF, VEGFR2, HGF, HGFR/c-MET, PDGF-BB, and Contactin-1. Levels of another marker, Notch-1 were also estimated by ELISA in the same cell line. These 8 biomarkers play very crucial role in the pathogenesis and progression of Brain Tumor. […] Supernatants were collected and the levels of these 8 markers were investigated.
# [1] = system: T24 (Human Bladder Cancer); assay: MTT cytotoxicity assay; conditions: 48h
# Experimental: (§1) All the cancer cell lines were procured from National Centre for Cell Science, Pune (India). Cell lines were maintained under conditions as mentioned in Table 23. The cell lines were sub-cultured by trypsinization followed by splitting the cell suspension into fresh flasks and supplementing with fresh culture medium.
# (§2) All the cell lines were grown in specified media at 37° C. with 95% Humidity and 5% CO2.
# (§3) The cells were trypsinized, counted by Trypan blue method in Neuebauer's Chamber and plated in wells of flat bottom 96-well plate at the density corresponding to 10×10^3 cells/well/200 μL medium.
# (§4) Following overnight incubation, the media in the plate was replenished with 180 μL/well and then the cells were treated with 20 μL of each test item at concentrations ranging from 2.5 μg/mL-80 μg/mL in triplicates, so that the total volume in each well is 200 μL.
# (§5) The untreated cells served as negative control. The cells were incubated with the test items or positive control for a time period of 48h. Following incubation, the cell cytotoxicity was estimated using MTT assay. Absorbance was measured at 540 nm. The percentage cytotoxicity corresponding to each treatment was calculated using the formula:
# (§6) % Cytotoxicity=(1−X/R)*100
# (§7) Where X=absorbance of wells corresponding to treated cells R=absorbance of untreated cells (cells maintained in growth medium only)
# (§8) IC50 value was calculated using Graph-Pad Prism version 4.01 software.
# [2] = system: MCF-7 (Human breast adenocarcinoma); assay: MTT cytotoxicity assay; conditions: 48h
# Experimental: as §1, §2, §3, §4, §5, §6, §7, §8
# [3] = system: PANC-1 (Human pancreatic epitheloid carcinoma); assay: MTT cytotoxicity assay; conditions: 48h
# Experimental: as §1, §2, §3, §4, §5, §6, §7, §8
# [4] = system: MIA PaCa-2 (Human pancreatic carcinoma); assay: MTT cytotoxicity assay; conditions: 48h
# Experimental: as §1, §2, §3, §4, §5, §6, §7, §8
# PANC-1 = assay: Cell cycle analysis (PI stain); assay type: cell-based, Human; conditions: 24 h
# Experimental: (§9) The cell lines were maintained in DMEM+10% FBS (heat inactivated) at 37° C. with 5% CO2, and 95% humidity. Antibiotics Penicillin (100 U/mL) and Streptomycin (100 μg/mL) were added to the medium.
# (§10) The stock solution of recombinant lectin having the amino acid sequence of SEQ ID NO. […] Doxorubicin was used as positive control and stock solution was prepared in DMSO.
# (§11) Cells were counted using hemocytometer and plated in culture plates at density of 0.5×10^6 cells/well in DMEM+10% FBS in 6-well plates. Cells were incubated overnight to allow the cell recovery and exponential growth. Following overnight incubation, cells were sera starved in DMEM+1% FBS for 4 h. […] Untreated cells were included as Control group for test item. Cells treated with Doxorubicin were included as Positive Control group. DMSO treated cells were included as control group for Doxorubicin. After treatment, cells were incubated for a time period of 24 h. Following incubation, the pro-apoptotic effect by cell cycle was determined as follows: Cell cycle reagent contains PI stain, which stains DNA of cells in different phases of cell cycle; Sub(G0/G1), G1, S, G2 and M. Cells in Sub(G0/G1) phase correspond to apoptotic cells.
# (§12) Cells were gently harvested into pre-labeled centrifuge tubes and centrifuged at 450 g for 5 min, RT (low brake). The supernatants were removed carefully (not to touch the pellet) and discarded. 1 mL of 1×PBS was added to the pellet and resuspended gently to make homogenous suspension. Cells were centrifuged at 450 g for 5 min, RT (low brake) (washing step). The supernatant was carefully removed leaving behind approx 100 μL of PBS. Cells were resuspended gently yet thoroughly in residual PBS. Ice-cold 70% ethanol (300 μLI) was added drop-wise into cells in each tube while vortexing at low speed (fixation step). Cells were stored at 4° C. for 24 h prior to staining.
# (§13) Ethanol fixed cells were centrifuged at 450 g for 5 min, RT (low brake). The supernatant was carefully removed (not to touch the pellet) and discarded. (The pellet might not be visible but makes a thin film on surface of tube). 1 mL of 1×PBS was added into pellet and resuspended gently. Cells were incubated for 1 min at RT. Cells were centrifuged at 450 g for 5 min, RT (low brake) (washing step). The supernatant was removed carefully leaving behind approx 20 μL-50 μL of PBS. 200 μL of Cell Cycle reagent was added into each tube.
# (§14) Cells were resuspended gently, mixed and were incubated for 30 min, RT, Dark. The stained samples were transferred into 96-well plates and acquired on flow cytometer (Guava technologies). Percentage of cells in Sub (G0/G1) phase were determined. Fold increase in apoptotic cells (treated with Test Items) was determined as compared to Control (untreated cells).
# MDA-MB-231 = assay: Cell cycle analysis (PI stain); assay type: cell-based, Human; conditions: 24 h
# Experimental: as §9, §10, §11, §12, §13, §14
molecule,measurement,setting,value
B1,Percentage inhibition on levels of Notch-1,Notch-1,81.2%-99.8%
same,IC50,[1],10.4 µg/mL
same,IC50,[2],>80 µg/mL
same,IC50,[3],24.3 µg/mL
same,IC50,[4],>80 µg/mL
same,"% Population of cells, Apoptotic Sub(G0/G1)",PANC-1; 2.5 μg/mL,1.60%
same,"% Population of cells, G0/G1",PANC-1; 2.5 μg/mL,38.89%
same,"% Population of cells, G2/M",PANC-1; 2.5 μg/mL,24.83%
same,"% Population of cells, S",PANC-1; 2.5 μg/mL,9.89%
same,"% Population of cells, Apoptotic Sub(G0/G1)",PANC-1; 5 μg/mL,2.54%
same,"% Population of cells, G0/G1",PANC-1; 5 μg/mL,40.09%
same,"% Population of cells, G2/M",PANC-1; 5 μg/mL,23.83%
same,"% Population of cells, S",PANC-1; 5 μg/mL,10.31%
same,Fold Increase (wrt Control) Apoptotic Sub(G0/G1),PANC-1; 5 μg/mL,1.4 fold
same,"% Population of cells, Apoptotic Sub(G0/G1)",PANC-1; 10 μg/mL,4.23%
same,"% Population of cells, G0/G1",PANC-1; 10 μg/mL,44.43%
same,"% Population of cells, G2/M",PANC-1; 10 μg/mL,23.92%
same,"% Population of cells, S",PANC-1; 10 μg/mL,10.15%
same,Fold Increase (wrt Control) Apoptotic Sub(G0/G1),PANC-1; 10 μg/mL,2.4 fold
same,"% Population of cells, Apoptotic Sub(G0/G1)",PANC-1; 20 μg/mL,3.92%
same,"% Population of cells, G0/G1",PANC-1; 20 μg/mL,44.24%
same,"% Population of cells, G2/M",PANC-1; 20 μg/mL,23.79%
same,"% Population of cells, S",PANC-1; 20 μg/mL,10.83%
same,Fold Increase (wrt Control) Apoptotic Sub(G0/G1),PANC-1; 20 μg/mL,2.2 fold
same,"% Population of cells, Apoptotic Sub(G0/G1)",PANC-1; 80 μg/mL,6.21%
same,"% Population of cells, G0/G1",PANC-1; 80 μg/mL,39.63%
same,"% Population of cells, G2/M",PANC-1; 80 μg/mL,27.41%
same,"% Population of cells, S",PANC-1; 80 μg/mL,9.58%
same,Fold Increase (wrt Control) Apoptotic Sub(G0/G1),PANC-1; 80 μg/mL,3.5 fold
same,"% Population of cells, Apoptotic Sub(G0/G1)",MDA-MB-231; 2.5 μg/mL,10.05%
same,"% Population of cells, G0/G1",MDA-MB-231; 2.5 μg/mL,65.21%
same,"% Population of cells, G2/M",MDA-MB-231; 2.5 μg/mL,12.97%
same,"% Population of cells, S",MDA-MB-231; 2.5 μg/mL,6.10%
same,Fold Increase (wrt Control) Apoptotic Sub(G0/G1),MDA-MB-231; 2.5 μg/mL,4.1 fold
same,"% Population of cells, Apoptotic Sub(G0/G1)",MDA-MB-231; 5 μg/mL,5.75%
same,"% Population of cells, G0/G1",MDA-MB-231; 5 μg/mL,61.99%
same,"% Population of cells, G2/M",MDA-MB-231; 5 μg/mL,15.40%
same,"% Population of cells, S",MDA-MB-231; 5 μg/mL,8.15%
same,Fold Increase (wrt Control) Apoptotic Sub(G0/G1),MDA-MB-231; 5 μg/mL,2.3 fold
same,"% Population of cells, Apoptotic Sub(G0/G1)",MDA-MB-231; 10 μg/mL,6.65%
same,"% Population of cells, G0/G1",MDA-MB-231; 10 μg/mL,60.71%
same,"% Population of cells, G2/M",MDA-MB-231; 10 μg/mL,15.50%
same,"% Population of cells, S",MDA-MB-231; 10 μg/mL,7.36%
same,Fold Increase (wrt Control) Apoptotic Sub(G0/G1),MDA-MB-231; 10 μg/mL,2.7 fold
same,"% Population of cells, Apoptotic Sub(G0/G1)",MDA-MB-231; 20 μg/mL,15.43%
same,"% Population of cells, G0/G1",MDA-MB-231; 20 μg/mL,55.66%
same,"% Population of cells, G2/M",MDA-MB-231; 20 μg/mL,13.35%
same,"% Population of cells, S",MDA-MB-231; 20 μg/mL,6.55%
same,Fold Increase (wrt Control) Apoptotic Sub(G0/G1),MDA-MB-231; 20 μg/mL,6.3 fold
same,"% Population of cells, Apoptotic Sub(G0/G1)",MDA-MB-231; 80 μg/mL,35.62%
same,"% Population of cells, G0/G1",MDA-MB-231; 80 μg/mL,42.49%
same,"% Population of cells, G2/M",MDA-MB-231; 80 μg/mL,10.14%
same,"% Population of cells, S",MDA-MB-231; 80 μg/mL,8.09%
same,Fold Increase (wrt Control) Apoptotic Sub(G0/G1),MDA-MB-231; 80 μg/mL,14.5 fold
